Reference: article PMC10319874 (Scientific Reports, 2023)

Molecular target: rKgp (Porphyromonas gingivalis) (UniProt Q51817)
Test: enzyme inhibition assay (chromogenic substrate)

Chain of rKgp (Porphyromonas gingivalis) (Q51817 25-1732): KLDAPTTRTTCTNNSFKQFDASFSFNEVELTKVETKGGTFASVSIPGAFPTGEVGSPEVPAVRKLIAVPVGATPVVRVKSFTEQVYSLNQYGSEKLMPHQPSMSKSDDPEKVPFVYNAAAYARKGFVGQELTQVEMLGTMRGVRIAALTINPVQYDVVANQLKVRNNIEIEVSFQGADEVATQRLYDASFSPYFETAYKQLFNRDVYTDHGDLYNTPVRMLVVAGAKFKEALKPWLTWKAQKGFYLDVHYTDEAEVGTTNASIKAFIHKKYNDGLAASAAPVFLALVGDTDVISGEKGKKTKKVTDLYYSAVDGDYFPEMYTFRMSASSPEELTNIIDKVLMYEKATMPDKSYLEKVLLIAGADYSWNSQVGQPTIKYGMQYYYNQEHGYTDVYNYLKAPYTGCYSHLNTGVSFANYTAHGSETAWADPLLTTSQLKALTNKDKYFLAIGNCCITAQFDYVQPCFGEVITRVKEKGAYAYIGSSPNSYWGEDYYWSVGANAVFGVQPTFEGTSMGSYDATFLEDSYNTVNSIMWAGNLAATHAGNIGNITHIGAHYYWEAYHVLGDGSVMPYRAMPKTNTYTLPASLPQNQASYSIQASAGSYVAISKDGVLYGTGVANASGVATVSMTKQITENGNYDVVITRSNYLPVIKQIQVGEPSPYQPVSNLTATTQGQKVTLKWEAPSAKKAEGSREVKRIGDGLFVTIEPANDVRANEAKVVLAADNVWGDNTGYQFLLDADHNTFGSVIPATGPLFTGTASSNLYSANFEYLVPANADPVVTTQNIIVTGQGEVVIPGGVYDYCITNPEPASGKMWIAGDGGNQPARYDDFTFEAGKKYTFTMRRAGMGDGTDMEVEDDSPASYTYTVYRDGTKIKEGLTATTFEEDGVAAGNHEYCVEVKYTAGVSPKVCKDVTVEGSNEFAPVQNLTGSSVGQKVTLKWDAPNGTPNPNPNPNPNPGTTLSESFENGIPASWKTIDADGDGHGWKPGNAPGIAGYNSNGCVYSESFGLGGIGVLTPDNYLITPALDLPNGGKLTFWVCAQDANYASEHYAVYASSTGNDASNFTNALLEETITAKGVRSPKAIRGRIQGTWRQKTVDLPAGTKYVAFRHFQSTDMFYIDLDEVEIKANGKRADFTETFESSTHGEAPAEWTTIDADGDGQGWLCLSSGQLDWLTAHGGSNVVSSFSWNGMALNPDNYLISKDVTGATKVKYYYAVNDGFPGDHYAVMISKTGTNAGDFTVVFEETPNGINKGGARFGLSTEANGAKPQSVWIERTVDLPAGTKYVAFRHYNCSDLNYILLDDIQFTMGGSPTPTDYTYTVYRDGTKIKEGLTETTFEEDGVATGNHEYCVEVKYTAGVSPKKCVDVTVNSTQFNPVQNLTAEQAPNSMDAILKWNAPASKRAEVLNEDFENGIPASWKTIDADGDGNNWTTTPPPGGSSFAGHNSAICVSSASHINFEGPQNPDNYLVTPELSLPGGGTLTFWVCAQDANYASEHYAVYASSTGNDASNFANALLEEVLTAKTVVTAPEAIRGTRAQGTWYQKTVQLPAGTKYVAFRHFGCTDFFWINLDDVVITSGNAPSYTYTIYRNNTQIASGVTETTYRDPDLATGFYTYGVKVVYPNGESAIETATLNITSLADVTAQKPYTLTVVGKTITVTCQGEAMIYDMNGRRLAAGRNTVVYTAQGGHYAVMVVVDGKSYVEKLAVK

Substance	Ki [µM]	IC50 [µM]
recombinant Kgp propeptide (rKgp-PP) (from UniProt Q51817) (domain or fragment)	37.5	
recombinant RgpB propeptide (rRgpB-PP) (from UniProt P95493 25-229) (domain or fragment)		11
